Data on two molecules can be found in US8765674B2, “Methods useful in the treatment of bone resorption diseases” (NPS Pharmaceuticals, Inc., priority 1997, dated 2014).

In test [1] the test system is patient with osteoporosis. The conditions noted are these: during therapy with PTH, cited from earlier work.
Test [2] deals with Postmenopausal females with osteoporosis. The experiment in a line: Clinical study: PTH (1-84) given for one year, bone mineral density. In kind it is in vivo, human. The conditions noted are these: subcutaneous injection, 50 to 100 micrograms daily. The text has this:
Postmenopausal females (n=172) with osteoporosis were given intact human PTH (1-84), as a subcutaneous injection, for one year in doses from 50 to 100 micrograms daily. It was shown that bone mineral density of the spine was increased in the lumbar spine, on the average by 8%. Increases in individual patients were considerably more than 10%. The changes of the femoral neck were smaller and ranged from 1 to 3%.

B1: PTH: Parathyroid hormone, an 84 amino acid polypeptide normally secreted from the parathyroid glands (protein, UniProt P01270 32-115, looked up)
Parathyroid hormone: SVSEIQLMHNLGKHLNSMERVEWLRKKLQDVHNFVALGAPLAPRDAGSQRPRKKEDNVLVESHEKSLGEADKADVNVLTKAKSQ
As to B1, the activation frequency result in test [1] (calculated) is reported as “doubled”. Also, the “bone mineral density in the femoral neck” value in test [1] is listed as “largely unaffected”.

B2: intact human PTH (1-84): intact human parathyroid hormone, full-length 84 amino acid polypeptide (protein, UniProt P01270 32-115, looked up)
Parathyroid hormone: SVSEIQLMHNLGKHLNSMERVEWLRKKLQDVHNFVALGAPLAPRDAGSQRPRKKEDNVLVESHEKSLGEADKADVNVLTKAKSQ
As to B2, the “increases of lumbar spine bone mineral density in individual patients” value in test [2] is on record as “more than 10%”. The “increase of bone mineral density of the lumbar spine, on the average” value in test [2] (n=172) was found to be 8%.
